Measured values as given in the RNAGym collection of RNA variant scans (doi:10.1021/acssynbio.7b00057).

B1: Pistol ribozyme (parent)
chain: GGGUCGUUGUUCCAUAAUCGCGUGGAUAUGGCACGCAAGUUUCUACCGGGCACCGUAAAUGUCCGACUGGAGCCGUUCGGGCGGCUAUAAACAGACCUCAGGCCCGAAGCGUGGCGGCACCUGCCGCCGGUGGUAAAAAAGAUCGGAAGAGCACACGUCU

Variants of: B1
Test: aptazyme ON/OFF ratio, guanine; higher = stronger switching; co-transcriptional cleavage with and without guanine

Row | Variant | aptazyme ON/OFF ratio
1 | U7A U8G G9C U10G U11C C12G | 1.3
2 | U7C U8C U10A C12G C13G | 1.12
3 | U7A G9U U10G U11G C12G C13A | 1.23
4 | G9C U10A U11C C12G C13G | 1.44
5 | U7G G9U U10C U11C C12A C13U | 1.47
6 | U7A U8A G9A U11G C12U C13G | 1.18
7 | U7C U8G G9U U11A C13G | 1.09
8 | U7C U10C U11C | 1.74
9 | U7C U8A G9U U10A U11C C12A | 1.15
10 | U8G G9A U10A C13U | 1.22
11 | U7C U8C U10G U11A C12U | 1.12
12 | U7G U8C G9A U11C C12G | 1.4
13 | U7A U8A G9A U10G U11A C12A C13U | 1.2
14 | U7A U8A G9A U10C U11C C12U C13A | 1.06
15 | U8G G9C U10C U11A C13G | 1.05
16 | U7A G9A U10G U11G C12U C13G | 1.33
17 | U7C G9C U10G U11A C12A C13A | 1.31
18 | U7G U8A G9U U10C U11A C12A C13A | 1.14
19 | U7A U8C U10G C12G | 1.12
20 | U7G U8G G9U U10G U11G C13U | 1.11
21 | U7A G9A U10C U11A C12G C13U | 1.16
22 | U7A G9C U11C C12U C13G | 1.12
23 | U8G G9A U10G C12G | 1.34
24 | U8A G9A U11A C12A | 1.08

Row | Variant | aptazyme ON/OFF ratio
25 | U7G U8G G9U U11A C12U C13A | 1.33
26 | U8G G9U U10G U11A C12U C13G | 1.05
27 | U7A U8G G9A U10G U11G C12A C13U | 1.5
28 | U7C U10A U11C C12A C13A | 1.1
29 | U7G U8G G9C U10A C13A | 1.05
30 | U7G U8A G9A U10G U11A C12G C13U | 1.14
31 | U8C G9C U10A C12A C13G | 1.15
32 | U7A U8C G9C U10G U11A C12A C13G | 1.16
33 | U7C U8C U10A C12U C13U | 1.03
34 | U7C U8G G9C U10C C12G C13A | 1.43
35 | U7C U8C G9U U11C C13G | 1.02
36 | U7A U8A G9U U10G U11G C12U C13U | 1.22
37 | U7A U8G G9C U10C U11C C12U C13A | 1.05
38 | U7A G9U U11C C12U | 1.16
39 | U7C U8A G9C U10C U11C C12G | 1.04
40 | U7A U8G G9A U10A U11A C13A | 1.19
41 | U7G U8G G9U U10G C13G | 1.21
42 | U7G U8A U10G U11G C12G C13G | 0.981
43 | U7A U8G G9U U10C | 2.52
44 | U7G U8C G9A U10G U11C C12A | 1.3
45 | U7A U8G U10C U11C C12G C13G | 1.26
46 | U8G G9A U11A | 1.59
47 | U7C U10A C12G | 1.29
48 | U7C U8C U11A C12U C13G | 1.13

Row | Variant | aptazyme ON/OFF ratio
49 | U8G G9U U10C U11G C12A C13A | 1.14
50 | U7G U8A U10G U11C C12U C13G | 1.52
51 | U7G U8C G9A U10A U11C C12G C13G | 1.03
52 | U7C U8C U10A U11C C12G C13U | 1.29
53 | U8C U10C U11G C12U C13U | 1.46
54 | U7C U8G G9C U10C U11A C12G C13U | 1.12
55 | U8C G9U C12U C13A | 1.25
56 | U7C U8A G9C U10A U11A C12G C13U | 1.16
57 | U8A G9A U10C U11G C12G C13U | 1.17
58 | U7A U8C C13U | 1.51
59 | U7C U10C U11G C12G C13U | 1.1
60 | U7C G9C U10G U11G C12U C13A | 1.07
61 | U7A G9U U11A C13A | 1.12
62 | U7A U8C G9C U10C C13G | 1.07
63 | U7A U8A G9C U10C U11A C12A C13G | 1.03
64 | U7C U10A U11C C12G | 1.25
65 | U7C U8G U10G U11G C12G C13U | 1.26
66 | U7C U8C G9C U10G U11A C13U | 1.09
67 | U7C U8A G9U U10A U11A C13A | 1.13
68 | U8G G9A U10G U11A | 1.05
69 | U7G G9U U11A C12A C13U | 1.43
70 | U7C U10A C12A C13A | 1.16
71 | U7A U8A G9A U10C C12A C13A | 1.13
72 | U7A U8A U10C U11A C12A C13G | 1.18

Row | Variant | aptazyme ON/OFF ratio
73 | U7A U8C G9A U10C C12G C13U | 1.23
74 | U7G U8G G9U U10G C12A C13U | 1.16
75 | U7C U8C G9A U11C C12G C13G | 1.29
76 | U8A G9U U10C U11G C12A C13A | 1.19
77 | U8A G9U U10C U11G C13U | 1.14
78 | U7C U10C U11G C12U C13G | 1.41
79 | U7C U8C G9U U10G U11C C12U C13U | 1.18
80 | U7G U10G C12U C13A | 1.18
81 | U7G U8A G9U U11C C12A C13G | 1.07
82 | U7C G9C U10A U11A C12G | 1.09
83 | U8A U11A C12G C13U | 1.17
84 | U7C U8C U10A U11C C12G C13A | 1.22
85 | G9C U11C C13G | 1.03
86 | U7G U8G G9U U10C U11C C13U | 1.37
87 | U8C U11A | 1.15
88 | U7G G9C U10G U11A C12U | 1.19
89 | U7A U8C U11A C12U C13U | 1.28
90 | U7G U8A G9A U11A C13A | 1.06
91 | U7C U8C G9C U10A U11A C13A | 1.13
92 | U7A G9A U10G U11A C13U | 1.06
93 | U7C U8A G9A U10C C12G C13U | 1.19
94 | U7C U8A G9A U10A U11C C12G C13U | 1.18
95 | U7G U8A U10C U11C C12U C13A | 1.14
96 | U8A U11G C12A | 1.09

Row | Variant | aptazyme ON/OFF ratio
97 | U10C U11C C13A | 1.02
98 | U7C U8A U10G U11G C12A | 1.2
99 | U7A G9A U10G U11A C12U C13U | 1.17
100 | U7A U8A G9C U10G U11A C12U | 1.03
101 | U8A G9U U10C C12A | 1.04
102 | U7A U8A U11G C12G C13U | 1.46
103 | U7G G9C U10A U11A C13U | 1.45
104 | U7G U8A U10C U11G C12A C13U | 1.37
105 | G9C U10A U11C C13U | 1.06
106 | U7C U8C G9A U10C C13U | 1.52
107 | U7G U8C G9U U10G C13U | 1.24
108 | U7A G9U U10A U11C C13A | 1.09
109 | U7A G9C U10C U11G C12A C13U | 1.02
110 | U7A U8C G9C U10C U11A C12G C13U | 1.1
111 | U8C G9U U11A C12A C13U | 1.34
112 | U7C U8A G9C C12A C13U | 1.15
113 | U7G U8A G9A U10G U11C C12A C13U | 1.14
114 | U7G U8A G9U U10G U11A C12U C13A | 1.11
115 | U7A U8A G9A U10G C12U C13A | 1.05
116 | U8G U10A U11A C13G | 1.07
117 | U7A U8A G9C U10G U11A C12G C13U | 1.13
118 | U8G U10G U11G C12U C13A | 1.42
119 | U7G U8C G9C U10C U11C C12G C13G | 1.04
120 | U7A U8G G9C C12U C13G | 1.22

Row | Variant | aptazyme ON/OFF ratio
121 | U7C U8G G9U U10C U11A C12U | 1.41
122 | U8C G9C U10A U11C C12G C13G | 1.16
123 | U7C U8A U10A U11C C12G C13A | 1.15
124 | U7A G9U U10A U11A C12A C13U | 1.3
125 | U7C U10C C13A | 1.11
126 | U8G U10G C12U C13G | 1.18
127 | U7G U8G G9A U10A | 2.16
128 | U7A U8C G9U U10A | 1.4
129 | U7G U8C U10G U11C C12A C13G | 1.17
130 | U7G U8C U10G C13A | 1.24
131 | U8A G9A U10G | 1.46
132 | G9U U10A U11G C12A C13A | 1.14
133 | U7A U8C G9C U11C C13U | 1.03
134 | U7C U8A G9C U10G C12G C13U | 1.15
135 | U8G G9A U10G U11G C12A C13U | 1.41
136 | U7C U8A U10G U11G C12A C13U | 1.29
137 | U7A G9U U10C U11C C13G | 1.04
138 | U7G U8G G9C U11A C12U C13A | 1.13
139 | U7G U8G G9A U10G U11C | 1.05
140 | U7A U8A U11A C12A C13U | 1.26
141 | U7C U8C G9U U10G U11C C13U | 1.21
142 | U8A G9C U10C U11A C13U | 1.11
143 | U7A U8C G9U U11C C13G | 1.03
144 | U7A U10G C12U C13G | 1.12

Row | Variant | aptazyme ON/OFF ratio
145 | U8A G9C U10C | 1.35
146 | U8A U10C C12G C13U | 1.44
147 | U7A U8C G9A U10C U11G C13A | 1.33
148 | U10G C12G C13A | 1.17
149 | U8A G9C U10A C12G C13A | 1.19
150 | U7C U8C U10C U11C C13U | 1.38
151 | U8C U10C U11C | 1.85
152 | U7G U8G G9C U10C U11C C12A C13U | 1.1
153 | U7A G9U U11A C12G | 1.35
154 | U7A U8C U11G C12U C13A | 1.08
155 | U7C U10C U11C C12G | 1.28
156 | U7C U8G G9U U10A U11A C12A C13U | 1.24
157 | U7A U8A U11C C12G C13A | 1.25
158 | U7A U8G U10A U11G C12G C13U | 1.46
159 | U7G U8C G9A U10C C12U | 1.37
160 | G9C U10A U11A | 2.14
161 | U7G U8C G9U U10C U11G C13U | 1.38
162 | U7A U8A G9U U11G C12A C13G | 1.27
163 | U7A G9A U11C C12A C13U | 1.16
164 | U7C U8A G9C U10G U11A | 1.05
165 | U8C G9A U11A C13A | 1.2
166 | U7G G9A U10A U11A C13U | 1.2
167 | U8C U10G U11G C12G C13A | 1.16
